The values below come from patent US7897142B2, “Peptide based-compounds” (GE Healthcare AS, priority 2004, dated 2011).

Positions of bridges follow the written chain, without caps; N, C: chain ends. Residues, ends and D or L forms follow the SMILES beside them. *: point of attachment. X1 = CC[N+]1=C(/C=C/C=C/C=C2/N(CCCCCC(=O)*)c3ccc(S(=O)(=O)O)cc3C2(C)C)C(C)(C)c2cc(S(=O)(=O)[O-])ccc21; X3 = C[N+]1=C(/C=C/C=C/C=C2/N(CCCCCC(=O)*)c3ccccc3C2(C)C)C(C)(C)c2cc(S(=O)(=O)[O-])ccc21; X2 = NC(=O)COCC(=O)NCCOCCOCCOCCN*

This data set can be described thus: in vitro. The following applies: blood plasma. As to the method: Protein Binding Analysis of Dye Conjugates Containing 1, 2 and 4 Sulphonic Acid Groups
An analysis of protein binding of the dye conjugates of the invention was performed by an equilibrium dialysis and rate dialysis as described in the book “Protein-Ligand Interactions: Hydrodynamics and calorimetry”, edited by Stephen E. Harding and Babur Z. Chowdhry, Oxford University Press, published 2001, chapter 2 by Bent Honoré, Department of Medical Biochemisty, University of Aarhus.
Turning to `C[N+]1=C(/C=C/C=C/C=C2/N(CCCCCC(=O)NCCCC[C@@H]3NC(=O)CSC[C@@H](C(=O)NCCOCCOCCOCCNC(=O)COCC(N)=O)NC(=O)[C@H](Cc4ccccc4)NC(=O)[C@@H]4CSSC[C@H](NC3=O)C(=O)N[C@@H](CCCNC(=N)N)C(=O)NCC(=O)N[C@@H](CC(=O)O)C(=O)N4)c3ccccc3C2(C)C)C(C)(C)c2cc(S(=O)(=O)[O-])ccc21` [Compound A, Cys2-6; c[CH2CO-Lys(Cy5 mono-SO3)-Cys-Arg-Gly-Asp-Cys-Phe-Cys]-(PEG)n-NH2 (n=1)] ({CH2CO}-K(X3)CRGDCFC-X2; disulfide 2-6; thioether N-8), the fraction unbound (commonly the share of the substance not bound to proteins or other matrix) is 0.83.
In turn, `CC[N+]1=C(/C=C/C=C/C=C2/N(CCCCCC(=O)NCCCC[C@@H]3NC(=O)CSC[C@@H](C(=O)NCCOCCOCCOCCNC(=O)COCC(N)=O)NC(=O)[C@H](Cc4ccccc4)NC(=O)[C@@H]4CSSC[C@H](NC3=O)C(=O)N[C@@H](CCCNC(=N)N)C(=O)NCC(=O)N[C@@H](CC(=O)O)C(=O)N4)c3ccc4c(S(=O)(=O)O)cc(S(=O)(=O)O)cc4c3C2(C)C)C(C)(C)c2c1ccc1c(S(=O)(=O)O)cc(S(=O)(=O)O)cc21` [Compound C] had a free fraction (fraction unbound) of 0.55.
In the case of `CC[N+]1=C(/C=C/C=C/C=C2/N(CCCCCC(=O)NCCCC[C@@H]3NC(=O)CSC[C@@H](C(=O)NCCOCCOCCOCCNC(=O)COCC(N)=O)NC(=O)[C@H](Cc4ccccc4)NC(=O)[C@@H]4CSSC[C@H](NC3=O)C(=O)N[C@@H](CCCNC(=N)N)C(=O)NCC(=O)N[C@@H](CC(=O)O)C(=O)N4)c3ccc(S(=O)(=O)O)cc3C2(C)C)C(C)(C)c2cc(S(=O)(=O)[O-])ccc21` [Compound B, Cys2-6; c[CH2CO-Lys(Cy5 bis-SO3)-Cys-Arg-Gly-Asp-Cys-Phe-Cys]-(PEG)n-NH2 (n=1)] ({CH2CO}-K(X1)CRGDCFC-X2; disulfide 2-6; thioether N-8) it was 0.79.
